Data on one substance can be found in publication PMC11020753, “Contribution of amino acids in the active site of dipeptidyl peptidase 4 to the catalytic action of the enzyme” (PLOS ONE, 2024).

Common to all, as to format: biochemical
One experiment addresses T1, DP4 variant E205A (Homo sapiens, UniProt P27487, E205A).
T1 construct: His(6)-37-766 hDP4 containing fractions were concentrated to 1 ml as described above; His6 (N); made in house; host or cells: Pichia pastoris X-33, vector pPICZα C (secreted)
In words: Km and kcat determination by LC/MS-MS assay. The note with it: hydrolysis of peptide hormone, 10 mM Tris-buffer (pH 7.6), T = 30 °C. How it is done: (§1) Therefore, DP4 was incubated with different substrate concentrations in 10 mM Tris-buffer pH 7.6 at 30°C. Enzyme concentrations and incubation times were chosen to obtain a linear product formation. After selected time points, samples were taken and the reaction stopped by addition of 19 volumes 0,1% HCOOH. Cleavage products were quantified in the respective samples by LC/MS-MS assay.

Another experiment has as its target T2, DP4 variant E206A (Homo sapiens, UniProt P27487, E206A).
T2 construct: His(6)-37-766 hDP4 containing fractions were concentrated to 1 ml as described above; His6 (N); made in house; host or cells: Pichia pastoris X-33, vector pPICZα C (secreted)
Put plainly: Km and kcat determination by LC/MS-MS assay. The note with it: hydrolysis of peptide hormone, 10 mM Tris-buffer (pH 7.6), T = 30 °C. On the procedure: as §1

The target in another experiment is T3, DP4 variant N710A (Homo sapiens, UniProt P27487, N710A).
T3 construct: His(6)-37-766 hDP4 containing fractions were concentrated to 1 ml; made in house; host or cells: Pichia pastoris X-33 (vector pPICZα C, secreted)
In words: Km and kcat determination by LC/MS-MS assay. The note with it: hydrolysis of peptide hormone, 10 mM Tris-buffer (pH 7.6), T = 30 °C. On the procedure:
as §1

The target of the next experiment is T4, DP4 variant N710D (Homo sapiens, UniProt P27487, N710D).
T4 construct: His(6)-37-766 hDP4 containing fractions were concentrated to 1 ml; made in house; host or cells: Pichia pastoris X-33 (vector pPICZα C, secreted)
Put plainly: Km and kcat determination by LC/MS-MS assay. The note with it: hydrolysis of peptide hormone, 10 mM Tris-buffer (pH 7.6), T = 30 °C. On the procedure: as §1

For the next experiment, the target named is T5, DP4 variant N710Q (Homo sapiens, UniProt P27487, N710Q).
T5 construct: His(6)-37-766 hDP4 containing fractions were concentrated to 1 ml; made in house; host or cells: Pichia pastoris X-33 (vector pPICZα C, secreted)
In words: Km and kcat determination by LC/MS-MS assay. The note with it: hydrolysis of peptide hormone, 10 mM Tris-buffer (pH 7.6), T = 30 °C. On the procedure: as §1

A further experiment addresses T6, DP4 variant R125A (Homo sapiens, UniProt P27487, R125A).
T6 construct: His(6)-37-766 hDP4 containing fractions were concentrated to 1 ml; made in house; host or cells: Pichia pastoris X-33 (vector pPICZα C, secreted)
In words: Km and kcat determination by LC/MS-MS assay. The note with it: hydrolysis of peptide hormone, 10 mM Tris-buffer (pH 7.6), T = 30 °C. On the procedure: as §1

Experiment [1] addresses T7, DP4 variant R125K (Homo sapiens, UniProt P27487, R125K).
T7 construct: His(6)-37-766 hDP4 containing fractions were concentrated to 1 ml; made in house; host or cells: Pichia pastoris X-33 (vector pPICZα C, secreted)
Put plainly: Km and kcat determination by LC/MS-MS assay. The note with it: hydrolysis of peptide hormone, 10 mM Tris-buffer (pH 7.6), T = 30 °C. How it is done: as §1

Experiment [2] has as its target T8, wild type DP4 (Homo sapiens, UniProt P27487).
T8 construct: His(6)-37-766 hDP4 containing fractions were concentrated to 1 ml; made in house; host or cells: Pichia pastoris X-33 (vector pPICZα C, secreted)
Put plainly: Km and kcat determination by LC/MS-MS assay. The note with it: hydrolysis of peptide hormone, 10 mM Tris-buffer (pH 7.6), T = 30 °C. On the procedure:
as §1

The target of experiment [3] is T7, DP4 variant R125K. In words: Cleavage of peptide hormones by MALDI-TOF mass spectrometry. On the set-up: key: +++: hydrolysis is comparable with the data obtained from the wild type enzyme; -: hydrolysis below 0,01% of the wild type enzyme. The note with it: T = 37 °C, 100 mM Tris-HCl, pH 7.6, substrate concentration 25 μM. How it is done:
(§2) Enzyme concentration 5 x 10^−9 M, substrate concentration 25 μM, reaction time 1–3 hours, depending on the respective hydrolysis rate. Reactions were stopped by addition of 1 volume DHAP/DAHC-matrix, dissolved in 50% (v/v) acetonitrile, after certain time points. The matrix-sample mixture was placed in a vacuum, which caused the proteins to crystallize together with the matrix. Using the mass spectrometer "LD-TOF System G2025" from Hewlett Packard, the relative amount of substrate and respective product peaks in the samples could be determined. Relative hydrolysis rates were depicted by plotting relative substrate concentration against time.

In experiment [4] the target is T8, wild type DP4. Described as above. On the set-up: key: +++: hydrolysis is comparable with the data obtained from the wild type enzyme; -: hydrolysis below 0,01% of the wild type enzyme. The note with it: T = 37 °C, 100 mM Tris-HCl, pH 7.6, substrate concentration 25 μM. How it is done:
as §2

T7 sequence (P27487 37-766 R125K): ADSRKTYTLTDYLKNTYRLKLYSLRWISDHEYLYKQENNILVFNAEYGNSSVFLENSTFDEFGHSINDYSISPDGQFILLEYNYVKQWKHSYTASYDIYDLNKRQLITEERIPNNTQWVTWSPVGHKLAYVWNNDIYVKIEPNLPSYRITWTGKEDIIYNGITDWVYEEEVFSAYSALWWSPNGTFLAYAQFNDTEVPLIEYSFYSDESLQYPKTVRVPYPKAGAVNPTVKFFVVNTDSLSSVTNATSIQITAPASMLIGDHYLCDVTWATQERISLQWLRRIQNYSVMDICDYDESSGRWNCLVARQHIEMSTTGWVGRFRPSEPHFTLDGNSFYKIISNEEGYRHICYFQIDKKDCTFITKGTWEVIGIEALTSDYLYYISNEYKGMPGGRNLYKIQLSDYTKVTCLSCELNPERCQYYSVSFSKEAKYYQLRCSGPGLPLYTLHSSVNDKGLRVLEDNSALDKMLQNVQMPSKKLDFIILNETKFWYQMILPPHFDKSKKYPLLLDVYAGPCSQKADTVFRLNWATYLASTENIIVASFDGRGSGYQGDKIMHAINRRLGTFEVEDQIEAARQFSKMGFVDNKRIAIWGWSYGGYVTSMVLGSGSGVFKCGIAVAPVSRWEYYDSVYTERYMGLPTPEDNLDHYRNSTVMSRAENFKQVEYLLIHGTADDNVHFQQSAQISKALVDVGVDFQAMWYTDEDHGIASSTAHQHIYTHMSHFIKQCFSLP
T8 sequence (P27487 37-766): as the sequence (P27487 37-766 R125K) above, with K89R counted along it
T1 sequence (P27487 37-766 E205A): as the sequence (P27487 37-766 R125K) above, with K89R, E169A counted along it
T3 sequence (P27487 37-766 N710A): as the sequence (P27487 37-766 R125K) above, with K89R, N674A counted along it
T4 sequence (P27487 37-766 N710D): as the sequence (P27487 37-766 R125K) above, with K89R, N674D counted along it
T6 sequence (P27487 37-766 R125A): as the sequence (P27487 37-766 R125K) above, with K89A counted along it
T5 sequence (P27487 37-766 N710Q): as the sequence (P27487 37-766 R125K) above, with K89R, N674Q counted along it
T2 sequence (P27487 37-766 E206A): as the sequence (P27487 37-766 R125K) above, with K89R, E170A counted along it

Consider “NP Y: physiological DP4 substrate, peptide hormone, proline in P1 position (H2N-Y-P-S…)”, for which the Km (as a rule, the concentration of substrate that gives half-maximal velocity) with DP4 variant E205A came to 180 µM; with DP4 variant E206A it was 98 µM; with DP4 variant N710A, 83 µM; with DP4 variant N710D, 190 µM; with DP4 variant N710Q, 510 µM; in the experiment with DP4 variant R125A, 150 µM. Moreover, the Km in the experiment with DP4 variant R125K [1] stood at 52 µM; with wild type DP4 [2], 13 µM. The kcat (usually the maximal rate divided by the concentration of active sites) with DP4 variant E205A was 11 ± 0.7 s⁻¹; with DP4 variant N710A, 1.8 ± 0.08 s⁻¹; with DP4 variant N710D, 12 ± 0.9 s⁻¹; in the experiment with DP4 variant N710Q, 2.0 ± 0.32 s⁻¹; in the experiment with DP4 variant R125A, 23 ± 0.9 s⁻¹; with DP4 variant R125K [1], 32 ± 0.5 s⁻¹. For the same substance, the kcat in the experiment with wild type DP4 [2] was 37 ± 2.7 s⁻¹. For the same substance, the “Hydrolysis of peptide hormone in comparison to the DP4 wild type enzyme” value in the experiment with DP4 variant R125K [3] and with wild type DP4 [4] was “+++” in each case.
